Measured values taken from the RNAGym collection of RNA variant scans (doi:10.7554/elife.80360).

B1: CPEB3 Ribozyme (parent)
chain: GGGGGCCACAGCAGAAGCGUUCACGUCGCGGCCCCUGUCAGAUUCUGGUGAAUCUGCGAAUUCUGCUGU

Variants of: B1
Assay: self-cleavage, relative activity (ratio to wild type); higher = more cleavage; co-transcriptional

Row | Variant | self-cleavage
1 | G14U U44G | 0.566
2 | G14U U44A | 0.553
3 | A15C G68A | 0.966
4 | A16G C29G | 0.309
5 | A15C G58U | 0.936
6 | G14U U43A | 0.321
7 | A15G G65A | 0.82
8 | G14U A42G | 0.404
9 | A16C U53A | 0.16
10 | A15G G31U | 0.558
11 | A15G A42U | 0.946
12 | G14C U20G | 0.151
13 | A15C G19U | 0.164
14 | A15C G19A | 0.185
15 | A15C G19C | 0.214
16 | A16C G25C | 0.0921
17 | A16G U36G | 0.259
18 | A16G U36A | 0.179
19 | A16C C32A | 0.0786
20 | A15G U62G | 0.94
21 | G14U U55A | 0.325
22 | A16G G41A | 0.404
23 | A15U C45A | 0.795
24 | A15U C45U | 0.858

Row | Variant | self-cleavage
25 | A15C C66G | 0.351
26 | A15C U43G | 0.491
27 | A15C U43A | 0.459
28 | G14C U44C | 0.189
29 | G14U G17C | 0.128
30 | A15G C22A | 0.191
31 | A15G C22G | 0.157
32 | A15U A16G | 0.56
33 | A16C U61C | 0.26
34 | A16C U61A | 0.418
35 | G14C G58U | 0.817
36 | G14C G58C | 0.497
37 | A16G C33A | 0.795
38 | A16C A42G | 0.24
39 | A16C C18U | 0.128
40 | G14U | 0.855
41 | A15G U46A | 1.04
42 | A15G U46G | 0.974
43 | A15C C34G | 0.131
44 | A15C C34U | 0.909
45 | A16C C33U | 0.261
46 | A15C C45G | 0.865
47 | A15C C45A | 0.772
48 | A15C C45U | 0.949

Row | Variant | self-cleavage
49 | A16C G56A | 0.231
50 | A16C G56C | 0.131
51 | A15G C66G | 0.862
52 | A15C C32U | 0.853
53 | G14U C66U | 0.436
54 | A16G G58U | 0.962
55 | A16G G58A | 0.932
56 | A16G G50C | 0.896
57 | A16G G50A | 0.915
58 | G14C U61C | 0.241
59 | A15G A59C | 0.649
60 | A15U G56U | 0.517
61 | A16G A52C | 0.927
62 | G14U A40C | 0.17
63 | A15U G50A | 0.943
64 | G14C U26A | 0.346
65 | A16G U21A | 0.92
66 | A16C C45U | 0.339
67 | A16C C45A | 0.264
68 | A16C C45G | 0.272
69 | A16C C24A | 0.161
70 | A16C C24U | 0.164
71 | A16C A60C | 0.215
72 | A15U U69A | 0.961

Row | Variant | self-cleavage
73 | A15U U69C | 1.03
74 | G14U U67A | 0.733
75 | A15U A40U | 0.288
76 | G14C U69A | 0.769
77 | A16G C22A | 0.167
78 | A16G C22U | 0.156
79 | A16C U46G | 0.309
80 | A16C U46C | 0.293
81 | G14U U69A | 0.923
82 | G14U U69G | 0.94
83 | G14U U69C | 1.03
84 | A15G A40U | 0.851
85 | A15G A40C | 0.631
86 | A16G C63U | 0.861
87 | A15U U44G | 0.713
88 | A15U U44C | 0.516
89 | A15C A40U | 0.451
90 | A15C C24G | 0.269
91 | A16C A40G | 0.16
92 | A15G U53A | 0.893
93 | A15U G41A | 0.28
94 | A16G C66A | 0.579
95 | A16C U69C | 0.82
96 | A15C C57G | 0.269

Row | Variant | self-cleavage
97 | A15C C57A | 0.282
98 | G14U U61A | 0.461
99 | A16G C54G | 0.581
100 | A16G C54A | 0.413
101 | G14C U38C | 0.284
102 | G14C U38A | 0.308
103 | G14U C24A | 0.249
104 | A16C U21C | 0.174
105 | A16C U44A | 0.0709
106 | A16C U44G | 0.307
107 | A15C A23G | 0.659
108 | A15C A23C | 0.835
109 | A15C A23U | 0.917
110 | A15G G37C | 0.239
111 | G14U G37A | 0.197
112 | A16C C57G | 0.0856
113 | A16C C57A | 0.129
114 | G14U C35A | 0.257
115 | A15U U38C | 0.613
116 | G14U A16G | 0.504
117 | A15U G68A | 0.937
118 | A15U G68U | 0.967
119 | A15U A52G | 0.939
120 | G14U U62A | 0.482

Row | Variant | self-cleavage
121 | A15G G50U | 0.995
122 | A15G G50C | 0.956
123 | A15G G68U | 1.01
124 | A16G C32G | 0.125
125 | A16G C32A | 0.607
126 | A15C A51U | 0.826
127 | A15C A51G | 0.897
128 | A16G G28A | 0.215
129 | A16G G28U | 0.188
130 | A15U G48C | 0.965
131 | A15U G48U | 0.9
132 | A15C A59U | 0.353
133 | A15C A59G | 0.798
134 | A15U U55G | 0.335
135 | G14C U53A | 0.326
136 | G14C U53C | 0.19
137 | G14U U20C | 0.219
138 | A16C A52G | 0.389
139 | A16G A51U | 0.914
140 | A16G A60G | 0.663
141 | A15C G56C | 0.446
142 | A15G A52G | 1.03
143 | A15G A52U | 0.959
144 | A15C C29A | 0.297

Row | Variant | self-cleavage
145 | G14U C33G | 0.341
146 | G14U G68C | 0.779
147 | G14U G68A | 0.908
148 | A16G G47A | 0.933
149 | A16G G47C | 1.02
150 | A16C G31C | 0.113
151 | A16C G31A | 0.0686
152 | A16C G31U | 0.124
153 | A15U C63G | 0.764
154 | A15G G17C | 0.138
155 | A15G A16C | 0.145
156 | A15C U49A | 0.889
157 | A15C C27A | 0.091
158 | G14U U26C | 0.478
159 | A15C G31U | 0.241
160 | A15G C32G | 0.415
161 | G14C G30C | 0.142
162 | G14C G30U | 0.157
163 | A15U U62A | 1.01
164 | A15U U46G | 0.898
165 | A15U U46A | 0.985
166 | G14U C27A | 0.172
167 | G14U C27G | 0.154
